In paper PMC8395977:
Blank lines part the entries; values can stand above or below the substance they belong to.

How the values were obtained:
[1] = molecular target: iota carbonic anhydrase from Thalassiosira pseudonana (tpι-CA), full-length four-domain recombinant protein (Thalassiosira pseudonana); experiment: SEC; Superdex Increase S200 10 x 300 at 4 °C, samples loaded at 50 µM to 200 µM; Benzonase treatment where mentioned
[2] = molecular target: iota carbonic anhydrase from Thalassiosira pseudonana (tpι-CA), full-length four-domain recombinant protein (Thalassiosira pseudonana); experiment: SEC-SAXS; SWING beamline (SOLEIL), Agilent Bio SEC-5 500 Å column, 15 °C; molecular mass from SAXS-MoW
[3] = molecular target: iota carbonic anhydrase from Thalassiosira pseudonana (tpι-CA), full-length four-domain recombinant protein (Thalassiosira pseudonana); experiment: native MS; ESI-MS under non-denaturing conditions, 500 mM ammonium acetate pH 8, 8 µM protein, Q-ToF (Synapt G1), source 20 °C
[4] = molecular target: iota carbonic anhydrase from Thalassiosira pseudonana (tpι-CA), full-length four-domain recombinant protein (Thalassiosira pseudonana); experiment: cross-linking; 0.01% glutaraldehyde, 20 mM Na2HPO4 pH 8.0, 10 to 15 min at room temperature, then SDS-PAGE and Western blot
[5] = molecular target: tpι-CA domain variant ∆1 (composed of domain 1 only) (Thalassiosira pseudonana); experiment: DOSY-NMR; 30 to 80 µM protein, 27 mM Tris, 45 mM NaCl, 10% D2O, pH 8, 298 K, 600 MHz; experimental Dt and Rh compared with HYDROPRO values of the models
[6] = molecular target: tpι-CA domain variant ∆1-2 (composed of domains 1 and 2) (Thalassiosira pseudonana); experiment: as above

stoichiometry N [1]: 4
stoichiometry N [2]: 4
stoichiometry N [3]: 4
stoichiometry N [4]: 4
Substance: iota carbonic anhydrase from Thalassiosira pseudonana (tpι-CA), full-length four-domain recombinant protein (enzyme)

stoichiometry N [5]: 2
Substance: tpι-CA domain variant ∆1 (composed of domain 1 only) (domain or fragment)

stoichiometry N [6]: 4
Substance: tpι-CA domain variant ∆1-2 (composed of domains 1 and 2) (domain or fragment)
